Assay results published in a protein production outcome set (Wang et al. 2014).

Assay: label from the status in PepcDB records
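Further: failed if final PepcDB status was selected cloned or expressed and not failed if soluble or beyond.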

Sequence | protein production
MEHSGTSEVTGADTAGPDPQLAVTMGFTGFGKKARTFDLEAMFEQTRRTAVERSRKTLEAREKEEEMNREKELRKQIEDMEPAPSSSSAARERSQSSCRDTSSSDSESDDSSDSSDDELIGPPLPPKMVGESVTTVDEGTLGPLPPPLCEEGEDDDDDELDDEGEEDNPVQRIPDSHEITLRHGTKTVSALGLDPSGARLVTGGYDYDVKFWDFAGMDASFKAFRSLQPCECHQIKSLQYSNTGDMILVVSGSSQAKVIDRDGFEVMECIKGDQYIVDMANTKGHTAMLHTGSWHPKIKGEFMTCSNDATVRLWEVENPKKQKSVFKPRTMQGKKVIPTTCTYSRDGNLVAAACQNGSIQIWDRNLTVHPKFHYKQAHDPGTDTSCVAFSYDGNVLASRGGDDTLKLWDVRQFNKPLFSASDLPTLFPMTDCCFSPDDKLIVTGTSVQRGCGSGKLVFLERRTFQRVYEIHITDASVVRCLWHPKLNQIMVGTGNGLAKVYYDPNKSQRGAKLCVVKTQRKAKQAETLTQDYIITPHALPMFREPRQRSTRKQLEKDRLDPLKSHKPEPPVAGPGRGGRVGTHGGTLSSYIVKNIALDKTDDSNPREAILRHAKAAEDNPYWVSPAYSKTQPKTMFAQVESDDEESKNEPEWKKRKI | failed
MEHWNKTFCLEVKGDYACFTRPEMKVERVSYDVITPSAARGIFEAIFWKPAIRWRIRKIEVLNPIKWISVRRNEVGQTASERSDGIFIETARQQRAGLFLRDVAYRLHAELEFVPPSERPDAKRPVPESLQDGRETSELRKDENPGKYYAIFERRARKGQCFNQPYLGCREFSCEFRLVDDLANEPPPISETRNLGFMLYDLDFQKNLKEPPPAFFPACLEKGVIKVPDWESEEVRK | failed
MEIASQEDHDMPIPLNTTFGGGGSHGHMIHHHDHHAANSAPPTHNNNNTTQPPPMPLHGNGHGNNYDHHHHQDPHHVGYNAIIKKPMIKYKECLKNHAAAMGGNATDGCGEFMPSGEDGSIEALTCSACNCHRNFHRKEVEGELAATAMSPYHQHPPHRKLMLNHQKIRSAMPHQMIMPIGVSNYRYMHNNSESEDFMEEDGVTTASRSLPNLPYNQKKRFRTKFTPEQKEKMLSFAEKVGWKIQRQEDCVVQRFCEEIGVKRRVLKVWMHNNKIHFSKKNNINLEDNDNEKINNLNNVDLSGNNDMTKIVP | failed
MEIFGKTFREGRFVLKEKNFTVEFAVEKIHLGWKISGRVKGSPGRLEVLRTKAPEKVLVNNWQSWGPCRVVDAFSFKPPEIDPNWRYTASVVPDVLERNLQSDYFVAEEGKVYGFLSSKIAHPFFAVEDGELVAYLEYFDVEFDDFVPLEPLVVLEDPNTPLLLEKYAELVGMENNARVPKHTPTGWCSWYHYFLDLTWEETLKNLKLAKNFPFEVFQIDDAYEKDIGDWLVTRGDFPSVEEMAKVIAENGFIPGIWTAPFSVSETSDVFNEHPDWVVKENGEPKMAYRNWNKKIYALDLSKDEVLNWLFDLFSSLRKMGYRYFKIDFLFAGAVPGERKKNITPIQAFRKGIETIRKAVGEDSFILGCGSPLLPAVGCVDGMRIGPDTAPFWGEHIEDNGAPAARWALRNAITRYFMHDRFWLNDPDCLILREEKTDLTQKEKELYSYTCGVLDNMIIESDDLSLVRDHGKKVLKETLELLGGRPRVQNIMSEDLRYEIVSSGTLSGNVKIVVDLNSREYHLEKEGKSSLKKRVVKREDGRNFYFYEEGERE | not failed
MEIFKPDYLMIDSMIFFPTLILSFLIKRNYVKLLKSIGIVSPIYLFWDFLATWRNSWTFNPKYVAGIYVIDLPIEEVMFFLVTPFATLLIFDFVMGKVRDKEVKWVPKVVCVAIPLLLLTLPFVYNYSYTFIDLVYLIMSLIVSLLIGRNLLASRNFWIFMGLSYIPFLVFDYFLTSDPVVIYGSHSIVGIRFITIPIEDFIYSFSMITFYTVFYIRGNSLWMKQK | failed
MEIHFEKVTSDNRKAVENLQVFAEQQAFIESMAENLKESDQFPEWESAGIYDGNQLIGYAMYGRWQDGRVWLDRFLIDQRFQGQGYGKAACRLLMLKLIEKYQTNKLYLSVYDTNSSAIRLYQQLGFVFNGELDTNGERVMEWTHQNK | not failed
MEIIHLSEIDSTNDYAKELAKEGKRNFIVLADKQNNGKGRWGRVWYSDEGGLYFSMVLDSKLYNPKVINLLVPICIIEVLKNYVDKELGLKFPNDIMVKVNDNYKKLGGILTELTDDYMIIGIGINVNNQIRNEIREIAISLKEITGKELDKVEILSNFLKTFESYLEKLKNKEIDDYEILKKYKKYSITIGKQVKILLSNNEIITGKVYDIDFDGIVLGTEKGIERIPSGICIHVR | not failed
MEIIIYIFVSIAIISLQAITPFVIRKSECFGVNVGERANRNAELTQLKKQYVGQVILWTSFVAIIGIALIQGFHSSENTQAGIFIASMFSQLIVSFIIYYRFHHTTLQWKRDKIEAGEISTNSIIMVDTSFHRRKMVISYTWFIVPLLIFIITLAITVVFYSTAPVDFPIHFDMSGTVTDTVAKSPRVVLLLPMMQLGMIALFIFINFVIARSKQTVENENPTDSLKRNMLFRQISSKAMLIMCTIMVIDFLIMQVVTLLALPAEWMMVTMIISVVLILFGTVLLAVKVGQGGSRLKFADQPDGVNKPIRDDDSFWKAGVIYFNRNDPALFVEKRFGIGWTINTARPVAWLSFVIIIAVIILISILF | failed
MEIRMSKSSSKPVLVTCGLPYANGKAHIGHLRTYVPADIYARSLKKEGREVTFVCGSDTHGTPIVVNAEELGITPTELVEIYHKHFDETFKQLGIYFDAFGTTDDPENHNRTHDIVSRLIEKGYVYPKIIEIAYCPACNRFLPDRYVEGACPHCGETARGDECDQGCGKHLEPGELQNPVCTICGGPAEYRQQEHFFFKLSEFSNYLMDYLSKDLGGTTNAINYARGWVKQGLTDWCITRNLEWGVKFPGHEDLVVYVWVDAPIGYIAFTEEWAAQAGDSWEKFWKGDGEIVHFIGGDITYHHCIFWPAMLKGADYSVPTAVVASGMVKIEDRKFSKTRGYVVWVGEDYLDHGFHPDLLRYYLASYTSHTKELNFSWRVLQEKINAELVAVLGNFLYRTMLFAFKNYGEVPEGEVEPEIRKEIEKALVEVKAAMEEYEFKKAVDSAMALASFGNTYFQSHEPWKLIKEDRDACGQVVYNCLHLAKALSLIFEPVIPQTMEKAWKGLGHESDIHAALYEETLVPLKAGTKLAKPEILFTKLEDDRIGEMEEIANQRVAAANAKRNGVKGGEKEPSKSEGMGPSEASKASEKTVDVATAEEKVQVETLPVIDYEDFAKLDIRVGKVLLVEPVKKSKKLLRIEVDIGEEKPRQLVAGMASYYTPEELVGKSVIVLANLKPAKLCGVESNGMMLAADDGGAIVAALMPDKEIKSGSRIR | failed
MEIRTFLERALKEDLGHGDLFERVLEKDFKATAFVRAKQEGVFSGEKYALELLEMTGIECVQTIKDKERFKPKDALMEIRGDFSMLLKVERTLLNLLQHSSGIATLTSRFVEALNSHKVRLLDTRKTRPLLRIFEKYSVLNGGASNHRLGLDDALMLKDTHLRHVKDLKSFLTHARKNLPFTAKIEIECESFEEAKNAMNAGADIVMCDNLSVLETKEIAAYRDAHYPFVLLEASGNISLESINAYAKSGVDAISVGALIHQATFIDMHMKMA | failed
MEISEQESVLEVKKRLGQFLQIPTSSITLFVSCWELIDGLDIEDYPIISHGTRIDLTVTPLFTAPSFIHAAVRKIHVTVKFPSKQFTVEVDRTETVSSLKDKIHIVENTPIKRMQLYYSGIELADDYRNLNEYGITEFSEIVVFLKSINRAKDVAPTSSSLFNGARIPVEIKDTCTISEMREGLQANKTLPRDEYIFVHKQRIMRENCSLRWHGVENGDTLFVFKGSISREGF | failed
MEITLNSGFKMPIIGLGVWRMEKEELRDLIIDAIKIGYRHLDCAANYKNEAEVGEALTEAFTTGLVKREDLFITTKLWSSDHGHVIEACKDSLKKLQLDYLDLFLVHIPIATKHTGIGTTDSALGDDGVLDIDTTISLETTWHDMEKLVSMGLVRSIGISNYDVFLTRDCLAYSKIKPAVNQIETHPYFQRDSLVKFCQKHGICVTAHTPLGGATANAEWFGTVSCLDDPVLKDVAEKYKQTVAQIVLRWGIQRNTVVIPKTSKPERLEENFQVFDFQLSKEDMEVIKSMERNYRTHQTAKFWGIELYA | not failed
MEITLSKSLLIAVVLAPLLGSIIAGLFGRQVGRKGAQYVTILGVAVSCVLSCVTLYQLVEQGASPFNQNLYTFFDVGNYSAHVGFMVDRLTAMMMVVVTFVSLLVHIYTIGYMEEDPGYQRFFSYISLFTFSMLTLVMSNNFLQLFFGWEAVGLVSYLLIGFWFKRPTAVFANMKAFLVNRVGDFGFILGIAGVLLWFGSLDYSTVFANATTMAGAKVQLFAGHEWSVMTLICICLFIGAMGKSAQVPLHVWLPDSMEGPTPISALIHAATMVTAGIFMVARMSPLFELSETALNFILFIGATTAFFTGLIGIVQNDIKRVVAYSTLSQLGYMTVALGVSAYSAAVFHLMTHAFFKALLFLAAGSVIIGMHHEQDMRKMGGLRKYMKVTYWTSVIGTLALVGTPFFSGFYSKDTIIEAAAHHAHESHNWVATYGYWAVLGGVLVTSFYSFRLLFLTFHGKERFRDAHAHDVHSHHDSAHTDAEAQVHSHDAHAHDDHGHGHHGAHEPHESKWVVTLPLVLLAIPSIAIGFFTIGPMLFGTDWQGHHAVHAMKGQAVSFFTGIVDFYDPARDTVGALAEEFHGPVAFALHGMLAAPFFLTVAGLLLAALFYLWKPELATKSRKTFAPIVWLLENKYGFDKLWINGFAGGGVVLGKASRAVDTHVVDGAVVNGSARLIDLAANLLRRTQSGFLYHYAFAMIIGLIALLAVLMHFWR | failed
MEKAILITFLIATTSMVYQTIGQEEEISPISPESLAYEPAAAYEYDHELLSHMTTRRIKFLQDCSDKMSSKCNVEMTEGLIDDKPVSEDCCVNFLKIGRECHEGLMTFVFATYELKDVASAILPRSKRMWNKCVETTAAKIGAPLAFET | failed
MEKEIKEKNLPLELTLVEASPRVGGKIQTVKKDGYIIERGPDSFLERKKSAPQLVKDLGLEHLLVNNATGQSYVLVNRTLHPMPKGAVMGIPTKIAPFVSTGLFSLSGKARAAMDFILPASKTKDDQSLGEFFRRRVGDEVVENLIEPLLSGIYAGDIDKLSLMSTFPQFYQTEQKHRSLILGMKKTRPQGSGQQLTAKKQGQFQTLSTGLQTLVEEIEKQLKLTKVYKGTKVTKLSHSGSCYSLELDNGVTLDADSVIVTAPHKAAAGMLSELPAISHLKNMHSTSVANVALGFPEGSVQMEHEGTGFVISRNSDFAITACTWTNKKWPHAAPEGKTLLRAYVGKAGDESIVDLSDNDIINIVLEDLKKVMNINGEPEMTCVTRWHESMPQYHVGHKQRIKELREALASAYPGVYMTGASFEGVGIPDCIDQGKAAVSDALTYLFS | failed
MEKEMARLAAFDMDGTLLMPDHHLGEKTLSTLARLRERDITLTFATGRHALEMQHILGALSLDAYLITGNGTRVHSLEGELLHRDDLPADVAELVLYQQWDTRASMHIFNDDGWFTGKENPALLQAFVYSGFRYQIIDVKKMPLGSVTKICFCGDHDDLTRLQIQLYEALGERAHLCFSATDCLEVLPVGCNKGAALTVLTQHLGLSLRDCMAFGDAMNDREMLGSVGSGFIMGNAMPQLRAELPHLPVIGHCRNQAVSHYLTHWLDYPHLPYSPE | failed
